This is an account of results in US20220315554A1, “COMPOUNDS COMPRISING A […] LIGAND AND USE THEREOF” (priority 2019, published 2022).

Test [1] has as its target T1, Recombinant human FAP (R&D systems, #3715-SE) (human).
T1 sequence: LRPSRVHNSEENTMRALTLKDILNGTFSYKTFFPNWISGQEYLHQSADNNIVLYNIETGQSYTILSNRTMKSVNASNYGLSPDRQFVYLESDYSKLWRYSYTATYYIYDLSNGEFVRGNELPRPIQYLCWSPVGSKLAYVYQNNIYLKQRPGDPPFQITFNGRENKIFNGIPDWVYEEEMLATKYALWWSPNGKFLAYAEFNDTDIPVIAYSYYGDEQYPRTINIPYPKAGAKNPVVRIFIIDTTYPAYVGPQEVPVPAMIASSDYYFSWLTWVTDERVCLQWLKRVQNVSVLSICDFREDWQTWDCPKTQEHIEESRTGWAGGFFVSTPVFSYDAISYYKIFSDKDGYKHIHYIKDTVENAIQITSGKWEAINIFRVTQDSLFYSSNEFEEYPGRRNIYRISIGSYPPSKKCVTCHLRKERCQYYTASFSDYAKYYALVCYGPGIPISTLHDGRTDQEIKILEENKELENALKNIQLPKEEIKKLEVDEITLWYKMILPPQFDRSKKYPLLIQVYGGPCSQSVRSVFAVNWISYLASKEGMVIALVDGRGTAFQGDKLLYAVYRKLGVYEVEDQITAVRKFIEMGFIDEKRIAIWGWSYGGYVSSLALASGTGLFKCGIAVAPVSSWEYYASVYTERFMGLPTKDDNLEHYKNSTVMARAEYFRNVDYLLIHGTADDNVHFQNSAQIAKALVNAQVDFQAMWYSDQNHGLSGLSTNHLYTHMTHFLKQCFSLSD

The target in test [2] is human fibroblast activation protein (FAP) on FAP-expressing human WI-38 fibroblasts (human). In words: competition FACS, WI-38 cells, vs Cy5-labeled compound; A: pIC50 >8.0.

A value given as a limit tells only on which side of the number the result lay.

Turning to “Ac-Met-[Cys(3MeBn)-Gly-Pro-Thr-Glu-Phe-Cys]-Asp-His-Phe-Arg-Asp-NH2 (peptide)”, in test [1], the pIC50 Category (Activity) is > 8 pIC50. For the same substance, the pIC50 Category (FACS) in test [2] was > 8 pIC50.

Turning to “Ac-Met-[Cys(3MeBn)-Pro-Pro-Thr-Glu-Phe-Cys]-Asp-Ala-Phe-Arg-Asp-NH2 (peptide)”, the pIC50 Category (FACS) in test [2] was > 8 pIC50.

As for “Ac-Met-[Cys(3MeBn)-Pro-Pro-Thr-Glu-Phe-Cys]-Asp-His-Aic-Arg-Asp-NH2 (peptide)”, the pIC50 Category (Activity) in test [1] is > 8 pIC50. For the same substance, the pIC50 Category (FACS) in test [2] is > 8 pIC50.

“Ac-Met-[Cys(3MeBn)-Pro-Pro-Thr-Glu-Phe-Cys]-Asp-His-Ala-Arg-Asp-NH2 (peptide)”: the pIC50 Category (Activity) in test [1] is > 8 pIC50. The pIC50 Category (FACS) in test [2] is > 8 pIC50.

In the case of “Ac-Met-[Cys(3MeBn)-Pro-Pro-Thr-Glu-Phe-Cys]-Asp-His-Amf-Arg-Asp-NH2 (peptide)”, the pIC50 Category (Activity) in test [1] is > 8 pIC50. Moreover, the pIC50 Category (FACS) in test [2] is > 8 pIC50.

Take “Ac-Met-[Cys(3MeBn)-Pro-Pro-Thr-Glu-Phe-Cys]-Asp-His-Mpa-Arg-Asp-NH2 (peptide)”: the pIC50 Category (Activity) in test [1] is > 8 pIC50. Besides, the pIC50 Category (FACS) in test [2] is > 8 pIC50.

With “Ac-Met-[Cys(3MeBn)-Pro-Pro-Thr-Glu-Phe-Cys]-Asp-His-Nmf-Arg-Asp-NH2 (peptide)”, in test [1], the pIC50 Category (Activity) was > 8 pIC50. The pIC50 Category (FACS) in test [2] was > 8 pIC50.

For “Ac-Met-[Cys(3MeBn)-Pro-Pro-Thr-Glu-Phe-Cys]-Asp-His-Phe-Arg-Ala-NH2 (peptide)”, the pIC50 Category (Activity) in test [1] was > 8 pIC50. In addition, the pIC50 Category (FACS) in test [2] was > 8 pIC50.

As for “Ac-Met-[Cys(3MeBn)-Pro-Pro-Thr-Glu-Phe-Cys]-Asp-His-Phe-Arg-Asp-NH2 (peptide)”, the pIC50 Category (Activity) in test [1] is > 8 pIC50. The pIC50 Category (FACS) in test [2] is > 8 pIC50.

Turning to “Ac-Met-[Cys(3MeBn)-Pro-Pro-Thr-Glu-Phe-Cys]-Asp-His-Phe-Arg-NH2 (peptide)”, the pIC50 Category (Activity) in test [1] is > 8 pIC50. Further, the pIC50 Category (FACS) in test [2] is > 8 pIC50.

Consider “Ac-Met-[Cys(3MeBn)-Pro-Pro-Thr-Glu-Phe-Cys]-Asp-His-Phe-Arg-asp-NH2 (peptide)”, for which, in test [1], the pIC50 Category (Activity) is > 8 pIC50. The pIC50 Category (FACS) in test [2] is > 8 pIC50.

As for “Ac-Met-[Cys(3MeBn)-Pro-Pro-Thr-Glu-Phe-Cys]-Asp-His-Phe-arg-Asp-NH2 (peptide)”, in test [1], the pIC50 Category (Activity) is > 8 pIC50. Further, the pIC50 Category (FACS) in test [2] was > 8 pIC50.

Turning to “Ac-Met-[Cys(3MeBn)-Pro-Pro-Thr-Glu-Phe-Cys]-Asp-His-Ppa-Arg-Asp-NH2 (peptide)”, the pIC50 Category (Activity) in test [1] is > 8 pIC50. Also, in test [2], the pIC50 Category (FACS) is > 8 pIC50.

As to “Ac-Met-[Cys(3MeBn)-Pro-Pro-Thr-Glu-Phe-Cys]-Asp-His-Tic-Arg-Asp-NH2 (peptide)”, the pIC50 Category (Activity) in test [1] is > 8 pIC50. Also, the pIC50 Category (FACS) in test [2] is > 8 pIC50.

On to “Ac-Met-[Cys(3MeBn)-Pro-Pro-Thr-Glu-Phe-Cys]-Asp-His-phe-Arg-Asp-NH2 (peptide)”, for which the pIC50 Category (Activity) in test [1] was > 8 pIC50. For the same substance, in test [2], the pIC50 Category (FACS) is > 8 pIC50.

Consider “Ac-Met-[Cys(3MeBn)-Pro-Pro-Thr-Glu-Phe-Cys]-Asp-his-Phe-Arg-Asp-NH2 (peptide)”, for which, in test [1], the pIC50 Category (Activity) was > 8 pIC50. Also, the pIC50 Category (FACS) in test [2] was > 8 pIC50.

As to “Ac-Met-[Cys(3MeBn)-Pro-Pro-Thr-Glu-Thi-Cys]-Asp-His-Phe-Arg-Asp-NH2 (peptide)”, the pIC50 Category (Activity) in test [1] was > 8 pIC50. Moreover, in test [2], the pIC50 Category (FACS) is > 8 pIC50.

Consider “Ac-Met-[cys(3MeBn)-Pro-Pro-Thr-Glu-Phe-Cys]-Asp-His-Phe-Arg-Asp-NH2 (peptide)”, for which, in test [1], the pIC50 Category (Activity) is > 8 pIC50. Further, the pIC50 Category (FACS) in test [2] is > 8 pIC50.

“Ac-met-[Cys(3MeBn)-Pro-Pro-Thr-Glu-Phe-Cys]-Asp-His-Phe-Arg-Asp-NH2 (peptide)”: in test [1], the pIC50 Category (Activity) was > 8 pIC50. In addition, the pIC50 Category (FACS) in test [2] is > 8 pIC50.

“DOTA-Ttds-Met-[Cys(3MeBn)-Pro-Pro-Thr-Glu-Phe-Cys]-Asp-His-Phe-Arg-Asp-NH2 (peptide)”: the pIC50 Category (Activity) in test [1] was > 8 pIC50. The pIC50 Category (FACS) in test [2] was > 8 pIC50.

With “DOTA-Ttds-Nle-[Cys(3MeBn)-Pro-Pro-Thr-Gln-Phe-Cys]-Asp-NH2 (peptide)”, the pIC50 Category (Activity) in test [1] is > 8 pIC50. The pIC50 Category (FACS) in test [2] was > 8 pIC50.

On to “DOTA-Ttds-Nle-[Cys(3MeBn)-Pro-Pro-Thr-Gln-Phe-Cys]-Bal-OH (peptide)”, for which the pIC50 Category (Activity) in test [1] is > 8 pIC50. Also, the pIC50 Category (FACS) in test [2] is > 8 pIC50.

As to “DOTA-Ttds-Nle-[Cys(3MeBn)-Pro-Pro-Thr-Glu-Phe-Cys]-Asp-His-Phe-Arg-Asp-NH2 (peptide)”, in test [1], the pIC50 Category (Activity) is > 8 pIC50. Also, the pIC50 Category (FACS) in test [2] is > 8 pIC50.

“DOTA-Ttds-Nle-[Cys(3MeBn)-Pro-Pro-Thr-Glu-Phe-Cys]-Asp-NH2 (peptide)”: the pIC50 Category (Activity) in test [1] is > 8 pIC50.

“DOTA-Ttds-Nle-[Cys(3MeBn)-Pro-Pro-Thr-Glu-Phe-Cys]-Asp-Pamb-Arg-NH2 (peptide)”: the pIC50 Category (Activity) in test [1] is > 8 pIC50. Besides, the pIC50 Category (FACS) in test [2] was > 8 pIC50.

For the substance “H-Met-[Cys(3MeBn)-Pro-Pro-Thr-Glu-Phe-Cys]-Asp-His-Phe-Arg-Asp-Ttds-Lys(Bio)-NH2 (peptide)”, the pIC50 Category (Activity) in test [1] is > 8 pIC50. Also, the pIC50 Category (FACS) in test [2] was > 8 pIC50.

For the substance “H-met-[Cys(3MeBn)-Pro-Pro-Thr-Glu-Phe-Cys]-Asp-His-Phe-Arg-Asp-NH2 (peptide)”, the pIC50 Category (Activity) in test [1] is > 8 pIC50. In addition, the pIC50 Category (FACS) in test [2] is > 8 pIC50.

Regarding “Hex-[Cys(3MeBn)-Pro-Pro-Ala-Glu-Phe-Cys]-NH2 (peptide)”, the pIC50 Category (Activity) in test [1] is < 6 pIC50.

Take “Hex-[Cys(3MeBn)-Pro-Pro-Thr-Ala-Phe-Cys]-NH2 (peptide)”: the pIC50 Category (Activity) in test [1] is < 6 pIC50.

Turning to “Hex-[Cys(3MeBn)-Pro-Pro-Thr-Gln-Otf-Cys]-NH2 (peptide)”, in test [1], the pIC50 Category (Activity) is > 8 pIC50.

On to “Hex-[Cys(3MeBn)-Pro-Pro-Thr-Gln-Phe-Cys]-Asp-Ttds-Lys(DOTA)-NH2 (peptide)”, for which the pIC50 Category (Activity) in test [1] is > 8 pIC50. Besides, in test [2], the pIC50 Category (FACS) is > 8 pIC50.

As to “Hex-[Cys(3MeBn)-Pro-Pro-Thr-Gln-Phe-Cys]-Bhk(DOTA)-OH (peptide)”, the pIC50 Category (Activity) in test [1] is > 8 pIC50. Besides, in test [2], the pIC50 Category (FACS) was > 8 pIC50.

Take “Hex-[Cys(3MeBn)-Pro-Pro-Thr-Gln-Phe-Cys]-Bhk(DOTA-Ttds)-OH (peptide)”: in test [1], the pIC50 Category (Activity) is > 8 pIC50. In addition, the pIC50 Category (FACS) in test [2] was > 8 pIC50.

With “Hex-[Cys(3MeBn)-Pro-Pro-Thr-Glu-Phe-Cys]-Asp-Arg-NH2 (peptide)”, the pIC50 Category (Activity) in test [1] was > 8 pIC50. The pIC50 Category (FACS) in test [2] is > 8 pIC50.

With “Hex-[Cys(3MeBn)-Pro-Pro-Thr-Glu-Phe-Cys]-Asp-Cmp-Arg-NH2 (peptide)”, the pIC50 Category (Activity) in test [1] is > 8 pIC50. The pIC50 Category (FACS) in test [2] was > 8 pIC50.

Consider “Hex-[Cys(3MeBn)-Pro-Pro-Thr-Glu-Phe-Cys]-Asp-Gab-Arg-NH2 (peptide)”, for which the pIC50 Category (Activity) in test [1] was > 8 pIC50. In test [2], the pIC50 Category (FACS) was > 8 pIC50.

Take “Hex-[Cys(3MeBn)-Pro-Pro-Thr-Glu-Phe-Cys]-Bal-OH (peptide)”: in test [2], the pIC50 Category (FACS) was > 8 pIC50.

As for “Hex-[Cys(3MeBn)-Pro-Pro-Thr-Glu-Phe-Cys]-Pamb-Arg-NH2 (peptide)”, in test [1], the pIC50 Category (Activity) is > 8 pIC50.
